Source: patent publication US12281147

Experiments:
human IL-21R (human) [1] = biological target: human IL-21R (human) (UniProt Q9HBE5); assay: AlphaSeq yeast mating assay, pH 5 media
human IL-21R (human) [2] = biological target: human IL-21R (human) (UniProt Q9HBE5); assay: AlphaSeq yeast mating assay, pH 7 media
human IL-21R (human) [3] = biological target: human IL-21R (human) (UniProt Q9HBE5); assay: AlphaSeq yeast mating assay, pH 6 media
human IL-21R (human) [4] = biological target: human IL-21R (human) (UniProt Q9HBE5); assay: AlphaSeq yeast mating assay, unbuffered media

Substance	Kd (human IL-21R (human) [1])	Kd (human IL-21R (human) [2])	Kd (human IL-21R (human) [3])	Kd (human IL-21R (human) [4])
IL-21_P108T (from UniProt Q9HBE4 32-152) (ligand)	57 µM	1.1 µM	–	–
IL-21_I45D (from UniProt Q9HBE4 32-152) (ligand)	20 µM	–	0.19 µM	–
IL-21_L42R (from UniProt Q9HBE4 32-152) (ligand)	150 µM	–	–	–
IL-21_Q48K (from UniProt Q9HBE4 32-152) (ligand)	11 µM	–	0.2 µM	–
IL-21_K106S (from UniProt Q9HBE4 32-152) (ligand)	7.3 µM	–	–	–
IL-21_L42N (from UniProt Q9HBE4 32-152) (ligand)	–	0.95 µM	26 µM	–
IL-21_E59R (from UniProt Q9HBE4 32-152) (ligand)	41 µM	0.34 µM	1.5 µM	–
IL-21_F79T (from UniProt Q9HBE4 32-152) (ligand)	92 µM	1.4 µM	3.3 µM	–
IL-21_F76Q (from UniProt Q9HBE4 32-152) (ligand)	–	63 µM	50 µM	–
IL-21_L56N (from UniProt Q9HBE4 32-152) (ligand)	72 µM	9.7 µM	–	–
IL-21_L49P (from UniProt Q9HBE4 32-152) (ligand)	330 µM	–	55 µM	–
IL-21_I45S (from UniProt Q9HBE4 32-152) (ligand)	15 µM	0.16 µM	0.11 µM	–
IL-21_D47S (from UniProt Q9HBE4 32-152) (ligand)	–	–	4.6 µM	330 µM
IL-21_M39R (from UniProt Q9HBE4 32-152) (ligand)	–	–	170 µM	340 µM
IL-21_V57Y (from UniProt Q9HBE4 32-152) (ligand)	0.046 µM	–	0.016 µM	–
IL-21_R34A (from UniProt Q9HBE4 32-152) (ligand)	0.36 µM	–	–	–
IL-21_R105D (from UniProt Q9HBE4 32-152) (ligand)	170 µM	–	–	–
IL-21_L56E (from UniProt Q9HBE4 32-152) (ligand)	–	–	30 µM	110 µM
IL-21_V57T (from UniProt Q9HBE4 32-152) (ligand)	0.17 µM	0.078 µM	–	–
IL-21_E72L (from UniProt Q9HBE4 32-152) (ligand)	0.047 µM	0.16 µM	–	–
IL-21_I37N (from UniProt Q9HBE4 32-152) (ligand)	33 µM	0.33 µM	–	–
IL-21_W73V (from UniProt Q9HBE4 32-152) (ligand)	110 µM	–	6.5 µM	–

Substance	Kd (human IL-21R (human) [1])	Kd (human IL-21R (human) [2])	Kd (human IL-21R (human) [3])	Kd (human IL-21R (human) [4])
IL-21_F76H (from UniProt Q9HBE4 32-152) (ligand)	79 µM	9.2 µM	14 µM	–
IL-21_D44G (from UniProt Q9HBE4 32-152) (ligand)	–	0.2 µM	0.05 µM	–
IL-21_L49N (from UniProt Q9HBE4 32-152) (ligand)	170 µM	–	–	–
IL-21_Q41K (from UniProt Q9HBE4 32-152) (ligand)	150 µM	7.2 µM	–	–
IL-21_F79P (from UniProt Q9HBE4 32-152) (ligand)	–	3.3 µM	7.8 µM	–
IL-21_F79K (from UniProt Q9HBE4 32-152) (ligand)	–	–	5.5 µM	–
IL-21_R38E (from UniProt Q9HBE4 32-152) (ligand)	–	–	8.4 µM	110 µM
IL-21_Q150S (from UniProt Q9HBE4 32-152) (ligand)	0.043 µM	0.12 µM	–	–
IL-21_F76P (from UniProt Q9HBE4 32-152) (ligand)	250 µM	–	41 µM	–
IL-21_D47P (from UniProt Q9HBE4 32-152) (ligand)	–	–	27 µM	530 µM
IL-21_L42D (from UniProt Q9HBE4 32-152) (ligand)	1600 µM	–	14 µM	–
IL-21_I96G (from UniProt Q9HBE4 32-152) (ligand)	–	–	52 µM	–
IL-21_R34V (from UniProt Q9HBE4 32-152) (ligand)	0.14 µM	0.11 µM	0.027 µM	–
IL-21_I37R (from UniProt Q9HBE4 32-152) (ligand)	–	0.2 µM	0.17 µM	–
IL-21_V57M (from UniProt Q9HBE4 32-152) (ligand)	0.057 µM	0.025 µM	–	–
IL-21_I45H (from UniProt Q9HBE4 32-152) (ligand)	–	–	6.2 µM	–
IL-21_W73S (from UniProt Q9HBE4 32-152) (ligand)	39 µM	0.34 µM	–	–
IL-21_I96T (from UniProt Q9HBE4 32-152) (ligand)	–	–	66 µM	–
IL-21_A75N (from UniProt Q9HBE4 32-152) (ligand)	–	–	28 µM	780 µM
IL-21_I45Y (from UniProt Q9HBE4 32-152) (ligand)	–	–	12 µM	–
IL-21_V46N (from UniProt Q9HBE4 32-152) (ligand)	–	–	37 µM	–
IL-21_L42G (from UniProt Q9HBE4 32-152) (ligand)	–	–	32 µM	–

Substance	Kd (human IL-21R (human) [1])	Kd (human IL-21R (human) [2])	Kd (human IL-21R (human) [3])	Kd (human IL-21R (human) [4])
IL-21_K104G (from UniProt Q9HBE4 32-152) (ligand)	–	–	0.079 µM	–
IL-21_P108Q (from UniProt Q9HBE4 32-152) (ligand)	–	0.11 µM	–	–
IL-21_L120V (from UniProt Q9HBE4 32-152) (ligand)	1.2 µM	0.21 µM	0.21 µM	–
IL-21_D33P (from UniProt Q9HBE4 32-152) (ligand)	40 µM	–	–	–
IL-21_V57H (from UniProt Q9HBE4 32-152) (ligand)	1.6 µM	–	0.024 µM	–
IL-21_L120M (from UniProt Q9HBE4 32-152) (ligand)	0.052 µM	0.056 µM	0.036 µM	–
IL-21_L49R (from UniProt Q9HBE4 32-152) (ligand)	–	–	–	160 µM
IL-21_I148S (from UniProt Q9HBE4 32-152) (ligand)	–	–	–	170 µM
IL-21_I100E (from UniProt Q9HBE4 32-152) (ligand)	–	–	78 µM	–
IL-21_N70A (from UniProt Q9HBE4 32-152) (ligand)	0.033 µM	0.094 µM	–	–
IL-21_I45N (from UniProt Q9HBE4 32-152) (ligand)	–	1 µM	–	–
IL-21_V57P (from UniProt Q9HBE4 32-152) (ligand)	–	3 µM	–	–
IL-21_I95P (from UniProt Q9HBE4 32-152) (ligand)	64 µM	–	3.6 µM	–
IL-21_W73N (from UniProt Q9HBE4 32-152) (ligand)	65 µM	–	3.4 µM	–
IL-21_R38A (from UniProt Q9HBE4 32-152) (ligand)	15 µM	–	–	–
IL-21_Q41P (from UniProt Q9HBE4 32-152) (ligand)	–	–	35 µM	–
IL-21_L42S (from UniProt Q9HBE4 32-152) (ligand)	–	11 µM	–	–
IL-21_R34F (from UniProt Q9HBE4 32-152) (ligand)	0.39 µM	0.11 µM	0.052 µM	–
IL-21_M39K (from UniProt Q9HBE4 32-152) (ligand)	–	–	–	890 µM
IL-21_R34N (from UniProt Q9HBE4 32-152) (ligand)	0.96 µM	–	0.052 µM	–
IL-21_P132A (from UniProt Q9HBE4 32-152) (ligand)	–	0.12 µM	0.024 µM	–
IL-21_Q80A (from UniProt Q9HBE4 32-152) (ligand)	–	–	12 µM	–

Substance	Kd (human IL-21R (human) [1])	Kd (human IL-21R (human) [2])	Kd (human IL-21R (human) [3])	Kd (human IL-21R (human) [4])
IL-21_L42Y (from UniProt Q9HBE4 32-152) (ligand)	0.043 µM	0.021 µM	0.011 µM	–
IL-21_L49H (from UniProt Q9HBE4 32-152) (ligand)	160 µM	–	–	–
IL-21_N51G (from UniProt Q9HBE4 32-152) (ligand)	0.11 µM	0.044 µM	–	–
IL-21_V98R (from UniProt Q9HBE4 32-152) (ligand)	0.046 µM	–	–	–
IL-21_L61H (from UniProt Q9HBE4 32-152) (ligand)	0.12 µM	0.024 µM	–	–
IL-21_I43P (from UniProt Q9HBE4 32-152) (ligand)	330 µM	–	–	–
IL-21_L42E (from UniProt Q9HBE4 32-152) (ligand)	–	26 µM	–	–
IL-21_F79R (from UniProt Q9HBE4 32-152) (ligand)	65 µM	4.5 µM	4.4 µM	–
IL-21_M39P (from UniProt Q9HBE4 32-152) (ligand)	–	–	–	260 µM
IL-21_L56S (from UniProt Q9HBE4 32-152) (ligand)	–	44 µM	46 µM	–
IL-21_D33R (from UniProt Q9HBE4 32-152) (ligand)	26 µM	0.14 µM	–	–
IL-21_I45P (from UniProt Q9HBE4 32-152) (ligand)	100 µM	–	–	–
IL-21_L49S (from UniProt Q9HBE4 32-152) (ligand)	240 µM	–	–	–
IL-21_M39Q (from UniProt Q9HBE4 32-152) (ligand)	–	–	83 µM	–
IL-21_I43S (from UniProt Q9HBE4 32-152) (ligand)	43 µM	–	1.1 µM	–
IL-21_P108G (from UniProt Q9HBE4 32-152) (ligand)	11 µM	–	–	–
IL-21_D66M (from UniProt Q9HBE4 32-152) (ligand)	0.055 µM	0.026 µM	–	–
IL-21_R38M (from UniProt Q9HBE4 32-152) (ligand)	–	2 µM	1.2 µM	–
IL-21_F76D (from UniProt Q9HBE4 32-152) (ligand)	–	–	55 µM	–
IL-21_R105K (from UniProt Q9HBE4 32-152) (ligand)	–	–	–	250 µM
IL-21_V53Q (from UniProt Q9HBE4 32-152) (ligand)	–	0.2 µM	0.16 µM	–
IL-21_D44T (from UniProt Q9HBE4 32-152) (ligand)	0.35 µM	0.16 µM	0.044 µM	–
